The text below walks through data of article PMC4605295, “The N-terminus of RPA large subunit and its spatial position are important for the 5′->3′ resection of DNA double-strand breaks” (Nucleic Acids Research, 2015).

This experiment deals with T1, GST fusion of Xenopus RPA1 (RPA large subunit) (Xenopus, UniProt Q01588 1-609).
T1 construct: Xenopus RPA1, large subunit of replication protein A; the gene for the subunit was subcloned into a pGEX vector; In-frame GST fusion from a pGEX vector; also called the large subunit; source: E. coli BL21(DE3), purified (glutathione Sepharose)
The experiment is described as follows: pull-down; GST fusions of RPA subunits or RPA1 regions incubated with His-tagged WRN 1-465, isolated on glutathione Sepharose beads, 4°C 1 h; washed with buffer A + 150 mM NaCl + 0.005% NP-40; Western blot for WRN. To be noted: both partners purified. Background: A western blot detects proteins with antibodies after separation by electrophoresis.

T1 sequence (Q01588 whole entry, the tested form may be a part): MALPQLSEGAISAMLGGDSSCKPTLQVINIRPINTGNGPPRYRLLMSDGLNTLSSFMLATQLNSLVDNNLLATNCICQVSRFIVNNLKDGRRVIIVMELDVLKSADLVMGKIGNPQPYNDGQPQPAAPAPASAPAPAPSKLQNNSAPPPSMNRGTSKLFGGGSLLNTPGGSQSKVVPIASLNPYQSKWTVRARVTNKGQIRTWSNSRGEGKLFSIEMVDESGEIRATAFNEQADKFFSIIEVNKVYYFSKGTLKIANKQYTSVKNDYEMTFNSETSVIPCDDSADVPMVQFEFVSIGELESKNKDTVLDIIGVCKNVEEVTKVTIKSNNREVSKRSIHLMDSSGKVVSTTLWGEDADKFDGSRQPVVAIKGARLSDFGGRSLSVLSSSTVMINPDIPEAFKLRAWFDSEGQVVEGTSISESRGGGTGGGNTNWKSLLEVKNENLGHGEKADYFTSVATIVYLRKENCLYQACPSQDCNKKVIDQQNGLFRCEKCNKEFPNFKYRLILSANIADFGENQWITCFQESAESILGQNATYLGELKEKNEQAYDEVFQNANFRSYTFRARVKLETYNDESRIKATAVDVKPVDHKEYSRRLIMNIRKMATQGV

B1: His-tagged Xenopus WRN 1-465 (domain or fragment, UniProt O93530 1-465, looked up)
chain: MTSLQRKLPEWMSVKQQEDRIDDAKKSFCKKNILEDNLPFMKFNGSIVYSYESNDCSLLSEDIRSSLLEEDVLGFDIEWPPVYTKGKTGKVALIQVCVSEKKCYLFHISPMAGFPKGLKRLLEDESVRKVGVGIEGDQWKLMSDYELKLKGFIELSEMANQKLRCKEKWTFNGLIKHLFKEQLYKRKSYRCSNWDIFLLTEDQKLYAATDAYAGLLIYKKLEGMDAHESDSFRVGREGVADCKGVKRQLTDLSKGLMDLVNQVPNSFGCYTEAVRAVDILEDLSEKLEELRNIMKEASKAEGNGLHFQNSEDCSKKDKSILHVACKESLAEHKMDCKNADSQNNKDIDSCQNENRDEDFFMTLGISEEELYMMEREDDKKQTNPDYKLNKDSCDTNEEKDMSYVIESDEDFDSEIIKSLEDLDNSTEEALGTGVPQAGLIPAKSVDTVADEEEDEGIEEEDDDDD
Consider B1, for which the binding result is “binds”.
